The values that follow come from a protein production outcome set (Wang et al. 2014).
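Note: failed if final PepcDB status was selected cloned or expressed and not failed if soluble or beyond.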

The series can be described thus: label from the status in PepcDB records.
For the sequence “AIAVSPLKTRCCSPSSQQQASEAREIEQPSTVWELDFYSRPVYGKDNKRIWELIVVDESFLLCHVESVPNDMINSAELRKRVERLLEQVTVKPKVVKFSRMPMFNMISLALKDLGFEVKPSRRTYRLYHVLRDREANIYSKMPGYRSENTLSTSYLYSTERLPDALRGEKFAFCTADYSFLYELQSSDTIPYCDIFNTGDSILLEKELPGIIVYSERADSLASWTAGAEVSFIKFREEELELVLECGINSHYRLAKIAEDHRLVEEAKTFEQMKWHMKGFHFYAIQSLKETSGTSHIKGLWLLNDFMEQ”, the protein production entry is on record as “not failed”.
As for “AITLTCDEIEQAFLHDHIFNYYQPQFDFRSGAMVGVEALVRYEHPTHGMLSPAVFLPLIEQCGLHEKLFLTVLEKSVSALASIGADLQLSVNISQRNLQHSICDPILAICERYGFPASKLTLEMTEHEVYNGTPTSLANLARLRMYGVGLSIDDFGTGYASLGQLAQLPFTELKIDRSFVHDLATNYKHQQLTNMCLLLAQSLGLHCVVEGVENEETWQYLRQLGVDTCQGYYAAKP”, the entry is “failed”; as for “ALIAGHFADPFSVLGMHRTDAGLEVRALLPDATDVWVIEPKTGRKVGKLECLDSRGFFSGVLPRRKNAFRYQLAVTWHGQQNLIDDPYRFGPLLQ”, “failed”; as for “ALKLMQYIGDAIGTIRDPQELFRTVTDKLRLLFAFDSAVIITIDRERREASVFFEMLRFELPEQLRHQTRSIAGTWLEGHLDDRTVTVASIARDIPSFGADGAPLLWTLHELGMRQIVLSPLRSGGRVIGFLSFVSAEEKLWSDGDKSLLSGVSSSIAIAVSNALAYEELRQRE”, “not failed”.
As for “ALQDRTQFSDRDLATLKKYWDNGMTSLGSVCREKIEAVATELNVDCEIVRTWIGNRRRKYRLMGIEV”, the entry is “not failed”; as for “ALYNVDAGHRAVIFDRFRGVQDIVVGEGTHFLIPWVQKPIIFDCRSRPRNVPVITGSKDLQNVNITLRILFRPVASQLPRIFTSI”, “failed”.
As for “ANTSGKDGTTVVIGESKSDHVIHLYEDPRCPGCAAMEQSIGETVNKGMEDGDYKLSFTVGTFLDGNLGGEGSKNALSALGAALNVSPEAFVDYKTALYSTKYHPEESTDEFAKDDYLIKVADSVDALKGNKKFQDAVEKGTYDAWAMRMSKSFDKAEGVESTPTIKINDKVVETPSTPDAWQKALKDAGVTK”, the entry is “failed”; as for “APAEPAAPKSGEAETPPKHPGVLKVEAILEKVQGLEQAVDSFEGKKTDKKYLMIEEYLTKELLALDSVDPEGRADVRQARRDGVRKVQTILEKLEQKA”, “not failed”.
In the case of “APEWTEEDLSQLTRSMVKFPGGTPGRWEKIAHELGRSVTDVTTKAKQLKDSVTCSPGMV”, the protein production result is listed as “not failed”.
Consider “APKTFMFGVSKVEEPKTVSFGTGIKETTATSSTEATAPTPAAAAPAPVQFVFKAPTTATTASSLTTTISTTSNAPALGGFSFGAPSSSSTVSSSTTSTSANPAAVKPMFSWSGAGSAVSSTSSSQQPVAKAPTLGFGVSSSTVTTTTTSTKVFAFTPASGLDPAAATSAPAAGAGFSFGSQSKPATTQNTGTFFFGQPTAVAPATPTNPSVSSIFGAPATSTTASTSVSATTSTSTANAIASSFAPTSTPQLFGNWGEKKTDLTTFGASSGSGTTTTPSFGWSSNGDAAKSNSAAVGSAAVPSSSASTMATPIFGSSSMFGPSSSSNNTTSTSTTSLPFGSAATTAATTPAGGNAALTGLFGNVGNSLAGVGAPVATTPAATAAAPLTNIFGNPTPVAAAAPVFGSGSTIPSAGFGAPAAAAPLAAPALPGAFN”, for which the protein production entry was “failed”.
As for “APLPVIFIPGIMGTNLRNKADKSEVWRPPNGLWPMDDLFASIGALWTWAWRGPKARQELLKAEQVEVDDQGTIDVGQSGLSEEAARLRGWGKVMRSAYNPVMGLMERRLDNIVSRRELQAWWNDEALSPPGDQGEEQGKVGPIDEEELLRASRYQFDVWCAGYNWLQSNRQSALDVRDYIENTVLPFYQKECGLDPEQMRRMK”, the protein production entry is listed as “failed”.
Consider “APRSVAMVVPQGSDIRQLSDLRGKRIALNKGSNVHWLLLQILEDAGLGLNDVRVVYTPPKYPLTASDYLAVDAWMMWDPLLSDAEHTGELRVVASGEGRVNNHQFYLSRRDYLAQHGDIMRRLLTELTHTGQFIDSHRGEAARLLSAELGI”, for which the protein production entry is reported as “failed”.
As for “AQAALEASEEKFAKAFHSSPDSITITEIESGRYVEVNDGFCRLTGFSAREVLGRTAHEIGIWTDTVQREFMIDELRQKGRMHHREMNGRDKKGAPLVLDVSVEFITLNNTACLLMNARDIG”, the protein production result was “failed”.
The entry for “AQELAHKINHIVASRPATAAMLQEIAHLVGTATNVDCCCLVTVTNEESTETTTANWCSDEFLGVPLSNEMFSTERFLMELPVLQCAVEPRNIDEISIIRNSLVVGCQHLPLPIKAVLAISTRFGGKTNGVISLIKFQSHDWDDSAKNILKTIEASCAIAFSQLTQAQLISSQQQHLQ” is “failed”; for “AQIPQQIKGVICINAGGGIYLKEAFEQFRVAGQRFLQVRPRWLSQVPLIDLLFTRASVSRPLDRQWARQRVIDFVVADPEAALGALLDSTTEDEVNRLPKLVSQLKQPVYFLAGTDDKVMEPKYVRHLASFHPLFQYCGDNVIEIPDCGHLAMLEQPDAVASHIKSLV” it is “failed”; for “ARDPAKLKQVAGQPRLREAVIRLMRGTDVIRVKMYALNGITLFSTDASQIGEDESDDDGFRSAAAGTPASELAHNHSIDAFERTLTDRDIISTYVPVHDPAGKIEGVLEIYLDATPFVADSDQQ” it is “failed”.
For “ARFMAVSSELKDDTRTYTVAGQVFFASSDRFMSHFDFREAVERVVIDVTHAHFWDITSVSALDRVVIKFRREGTEVEIKGMNDATRTLVDRFGVHDKPEEVEKLMGGH”, the protein production entry is “not failed”.
The entry for “ARFYSDGLKLAGTLFVPDDYEPGQKRPAVLICHGRFAIKEWVPSRWTPHFLAAGYVCMVFDYRNLGESEGTPGRIIPDEEVRDARHALTYLQCQPEVDPARIGALGWGLGGGVAVSAAAHDARIKAVVCAIGVANGGRYGRVGMSDAAWAARQEQIAADRRERVLTGRSARLPRTEILGRPDAQRAERHERQNWIDSLVAAVGPERAADPAKLGIPDEITLESMEALYDFAPDAVVDRIAPRPLLIVHARDDHEFPFEHAADMYERAAQPKQLIAVEDAGHLDWIDPAHPSQQVYVPQVVAWMQAQL” is “not failed”; for “ARPCIPKSFGYSSVVCVCNATYCDSFDPPTFPALGTFSRYESTRSGRRMELSMGPIQANHTGTGLLLTLQPEQKFQKVKGFGGAMTDAAALNILALSPPAQNLLLKSYFSEEGIGYNIIRVPMASCDFSIRTYTYADTPDDFQLHNFSLPEEDTKLKIPLIHRALQLAQRPVSLLASPWTSPTWLKTNGAVNGKGSLKGQPGDIYHQTWARYFVKFLDAYAEHKLQFWAVTAENEPSAGLLSGYPFQCLGFTPEHQRDFIARDLGPTLANSTHHNVRLLMLDDQRLLLPHWAKVVLTDPEAAKYVHGIAVHWYLDFLAPAKATLGETHRLFPNTMLFASEACVGSKFWEQSVRLGSWDRGMQYSHSIITNLLYHVVGWTDWNLALNPEGGPNWVRNFVDSPIIVDITKDTFYKQPMFYHLGHFSKFIPEGSQRVGLVASQKNDLDAVALMHPDGSAVVVVLNRSSKDVPLTIKDPAVGFLETISPGYSIHTYLWHRQ” it is “not failed”; for “ASDFQTGIHKIVIQQSGDTDSFEVSVSIGGADKGGPAKLYNDKGEYIGDSYSAQIRTATMSCCTNGNAFFMTCAGSVSSISEAGKRLHITVIGYIDDKEVNRLEKEYITDGNTLIETFSVSTKEI” it is “not failed”.
The entry for “ASDSAFTYNGVSITRPTNEVNDVISGVNITLEQTTEPNKPAIISVSRDNQAIIDSLTEFVKAYNELIPKLDEDTRYDADTKIAGIFNGVGDIRAIRSSLNNVFSYSVHTDNGVESLMKYGLSLDDKGVMSLDEAKLSSALNSNPKATQDFFYGSDSKDMGGREIHQEGIFSKFNQVIANLIDGGNAKLKIYEDSLDRDAKSLTKDKENAQELLKTRYNIMADVLPLMIAKSLKPIKNSIPCK” is “failed”.
As for “ASKAFYSAGDKLFQPGDDAVASMQTYSVAQFLQPFTLNPAKASSDYLGKWVKVRGVIVDIRRKSGIAGSYYFIVTMRDEQNKTDKRLTFNFGSHNSADVEALSNGSVATIVGQVHQVQDSTIPTLQNPKVVK”, the entry is “not failed”; as for “ATHIIFTTHENSDGDGLGSQVALALALKALGKEVAIFNPTEVPPNYLFLKELHEINLFRDRDEESMQEFFLADLLVVLDANLHDRIGRLWPHVEFARQMSRLKVLCIDHHLEPEDFADITVCETYASSTGELVCDLVTALELRTGQQLFTPEVASALYAAIMTDTGSFRFPKTTPYTYRLAGMLVEKGADPELVYDRIYNAL”, “failed”.
As for “AVGKNKGLSKGGKKGGKKKVVDPFSRKDWYDVKAPNMFQTRQIGKTLVNRTQGQRIASDYLKGRVFEVSLADLQKDIDPERSFRKFRLIAEDVQDRNVLCNFHGMDLTTDKYRSMVKKWQTLIEAIVEAKTVDGYLLRVFCIGFTAKDQQSQRKTCYAQQSQVRKIRARMTDIITNEVSGADLKQLVNKLALDSIAKDIEKSCQRIYPLHDVYIRKVKVLKKPRFDVSKLLELHGDGGGKSVEAVVSSEGAVIDRPEGYEPPVQESV”, the protein production result is listed as “failed”.
As for “AVSFTGVSGVKNIVAVTACPTGVAHTFMSAEAIEAYAKKQGWNVKVETRGQVGAGNEITVEEVAAADLVFVAADIDVPLDKFKGKPMYRTSTGLALKKTEQEFDKAFKEAKIF”, the entry is “failed”; as for “CPLLLRVFTTNNGRHHRMDEFSRGNVPSSELQIYTWMDATLKELTSLVKEVYPEARKKGTHFNFAIVFTDVKRPGYRVKEIGSTMSGRKGTDDSMTLQSQKFQIGDYLDIAIT”, “failed”.
As for “DCYKNFVAKKCAGCKNPITGFGKGSSVVAYEGQSWHDYCFHCKKCSVNLANKRFVFHQEQVYCPDCAKKL”, the entry is “not failed”; as for “DDAGKRHVYVKEIATGTVKRAIEEKDELIKGYGWINDERLFFVMDKGGNENYHLFASNIDGSNTRDLTPFDGVKASILNMLKEQKDYMIISMNKNNPQIFEPYKLNVVTGELTQLYENKDAANPIQGYEFDKDGELRGYSRLVNGIESELYYKDLATGEFRLLKKTHWDDTFGVIAFNYASKNKDEAYVLTNLDSDKTRIVLYDLKQNKIIREIFANEDYDVSGLHLSRKRNYEIDLMAYEGEKSVVVPVSATYKELHKLMEKEFKGKEFSVVDYDDDETILLIAVQSDKLYGTYYQFDTRTKKFTLLYDLMPQLKEEDMAEMRPIKFKSRDGLTIHGYITLPKAALEGKKVPLIVNPHGGPQGIRDSWGFNPETQLFASRGYATLQVNFRISGGYGKEFLRAGFKQIGRKAMDDVEDGVRYAISQGWVDPDRIAIYGASHGGYATLMGLVKTPDLYACGVDYVGVSNIYTFFDSFPEYWKPFKEMVKEIWYDLDNPEEAAIAKEVSPFFQIDKINKPLFVVQGANDPRVNINESDQIVTALRARGFEVPYMVKYNEGHGFHREENSMELYRAMLGFFAKHLK”, “failed”.
The entry for “DDRQEEKMIKENVYFDGNVKSLGFSQQDGESTVGVMAPGQYTFGTGAPERMTVVKGALTIKRVTDADWVTFTAGEAFEVAGNSSFDLQVEVATAYLCEFL” is “failed”.
In the case of “DEIFCRVYMPDHSYVTIRSRLSASVQDILGSVTEKLQYSEEPAGREDSLILVAVSSSGEKVLLQPTEDCVFTALGINSHLFACTRDSYEALVPLPEEIQVSPGDTEI”, the protein production result is “not failed”.
